Tested on: K4 kissing-loop RNA reporter
Assay: apparent KD of K4 kissing-loop reporter; higher = weaker reporter binding
Conditions: Eterna round: R107
Description: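 RNA-MaP round R107: designed RNA switches with theophylline, tryptophan, arginine or FMN aptamers are transcribed on-chip within common flanks. They are titrated with a labelled K4 kissing-loop RNA reporter in RNA-MaP buffer (100 mM Tris pH 7.5, 80 mM KCl, 4 mM MgCl2), without ligand or with the indicated ligand. Median apparent KD per design.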

[1] = input ligand: theophylline 20 uM
[2] = input ligand: tryptophan 2.4 mM
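Note: bound reporter read as fluorescence of individual clusters on recovered sequencing chips by microscopy, with normalized cluster intensities fitted with a binding model.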

Row | Sequence | apparent KD of K4 kissing-loop reporter (input ligand: FMN 200 uM) [nM] | apparent KD of K4 kissing-loop reporter (input ligand: arginine 13.2 mM) [nM] | apparent KD of K4 kissing-loop reporter (input ligand: none) [nM] | apparent KD of K4 kissing-loop reporter [1] [nM] | apparent KD of K4 kissing-loop reporter [2] [nM]
1 | UAGUGGUAGACCAGAUCUACCACUAGGGAUACCAGCCUCGGUCGAGGCCCUUGGCAGCCCAGCGGGUCCAGUGAUGUUGGAUGUC [Raanza] | 355 | 256 | 322 | 194 | 295
2 | UAUAAGCGCAGAGGAUAUACUAGCUUUCACUAGUGCAGUGAUGUUGCACUAGACCAGCUGUACAUAGUAGAAGGCUGCGUUCCUU [FMN B SS t1] | 89.1 | 116 | 112 | 131 | 117
3 | UAUACACAGGGAGGAUAUGCCCACACAACAACCGAGUGAUGUUCGGACAAUACACAUAAUACACGGGCAGAAGGCCCACAUCACA [SS FNM B Tesla 1] | 143 | 195 | 245 | 192 | 139
4 | UAUAUAUGAUGUGAUACCAGUGAAAAGCCAGUGAUGUUGGUAGAACUGGUAUAUAAAUAACACCCUUGGCAGCACAAUCACGUAU [whbob_Ex_Theo_B_sa96] | 155 | 134 | 147 | 191 | 146
5 | UAUAUGCAGUGAUGUUGCGGCACACUUCCGAAGGAUAUGUCCGGUGACAGAAGGUCGGUCCAUGGGACAUCACGUGUGCUUGAUG [theeternabot_exclusion_KL_FMN_A_15] | 542 | 536 | 613 | 529 | 458
6 | UAUUUAAUGUCAGGAUAUCGUAUACGAGUGAUGUUCGUAUUUCUACUAUAGAUUAUUUAAAUUUUUCGAGAAGGGACAAUAUUUA [KL-SSFMN-B4] | 177 | 208 | 193 | 186 | 158
7 | UCAAACGAUGGAAGGAGCGCUCGUCAGUCCUGCGAGUGAUGUUCGUGGGUAAAUAGUCGCGAGCAGGUAGGUCGCCAUCUUAAGC [Bisodi] | 135 | 98.1 | 118 | 108 | 113
8 | UCACAAGUUAACUAGUGAUGUUAGUUAGUACGAGGACCGGUACGGCCGCCACUCGAAAAGUGGUUUUACGGACUUUUGGGCAGGC [theeternabot_sameState_KL_Trp_A_17] | 337 | 250 | 268 | 223 | 260
9 | UCCUACGAGGUAACGUGGAUAUCUCGUUGCAAGGAUAUCUGGAAACAGAGAAGGUGCAACAUUAUCAGCAGUGAUGUUGCUGACC | 215 | 247 | 276 | 389 | 329
10 | UCCUACGAGGUAACGUGGAUAUCUCGUUGCAAGGAUAUCUGGAAACAGAGAAGGUGCUACAUUAUCGGCAGUGAUGUUGCUGACC | 687 | 655 | 1010 | 759 | 529
11 | UCCUAGGUUCGUCGGCGAAAGCCCUGCGAAGGAGCGUGCGAAAGCACAGGUAGGUCGCGCAGUGAUGUUGCACCUAGGUAAUAAA [#SwitchBubble 23 #K4Late] | 1030 | 672 | 344 | 150 | 781
12 | UCCUGCUGUCAGCCACGAAAGUGGAUUGAUACCAGAGUCGAAAGACUCCCUUGGCAGCGAGUGAUGUUCGCAGCAGGUAAAUAAA [MatMod 3 - Jieux - Exclusion - Theophylline A] | 358 | 257 | 269 | 356 | 256
13 | UCGAGUUGACGAAAAGUCAACUCGUGAGAUACCAGUGACGAAAGUCACCCUUGGCAGCUCACUGCCAGUGAUGUUGGUAUAUAGA [#05 K4 Theophylline A Same State] | 146 | 80.8 | 105 | 217 | 87.5
14 | UCGCAUCUCAGAAGGAGCGACAGUGAUUCUGAUAGAAAUCUGAGUGAUGUUCAGAACAGCUGUCAGGUAGGUCGCUGAGAUGCGA [Arg B Ex t8] | 813 | 384 | 547 | 413 | 314
15 | UCUGCAAAGUCGGCCGCCACUCCGGGCCCUAUAAAUGGGCGCAGUGAUGUUGCGGCUAGGCCUCUGAGGACCGGGACUUUGUAGA [Atlesoqu] | 87.5 | 54.3 | 100 | 132 | 246
16 | UCUGUUUCGAUGGAUACCAGUCGGCGAAUCACAGCUAUUAGCCUAGUGAUGUUAGGAUCGGACCCUUGGCAGCCAAUGGAUGCGG [theeternabot_sameState_KL_Theo_B_14] | 921 | 750 | 1240 | 1270 | 732
17 | UGACUACAUAAGGAAUAAUCCUAGUGAUGUUAGGAUAUGCUGAUAAGCAGAAGGAACGGAGAUCGAAGGAUCUCAUAUGUAGUCU [whbob_Ex_FMNA__2th194] | 275 | 101 | 103 | 121 | 103
18 | UGACUGGACUGAAGGAGCGCAAAACUCCUAGUGAUGUUAGGAAAACGAGACAAAGUCUCGAUGCAGGUAGGUCGCAGUCUAGUCU | 209 | 146 | 185 | 194 | 182
19 | UGACUGGAUGGAAGGAGCGCUAAACUCCUAGUGAUGUUAGGGAUACGAGACAAAGUCUUGAAGCAGGUAGGUCGCCAUCUAGUCU [FiskerMod 10 - Jieux - Same State - Arginine B] | 170 | 124 | 144 | 144 | 138
20 | UGAGAUAUGAGGGAUACCAGCCAUAAGGAAAGUGUGAUGAGUGAUGUUCUGACAAGCCAAGGCCCUUGGCAGCUUUAAUAGCAUC [whbob_SS_Theo_B_th77] | 328 | 191 | 280 | 167 | 267
21 | UGAUACCAGACGGCCGCCACUCCCGUAAGUCAAAGACUUACGAAGAGAAUCGUCCAGUGAUGUUGGAGGACCGGGUCUGGUAUCU [FiskerMod 11 - Jieux - Exclusion - Tryptophan B] | 680 | 664 | 818 | 600 | 785

Row | Sequence | apparent KD of K4 kissing-loop reporter (input ligand: FMN 200 uM) [nM] | apparent KD of K4 kissing-loop reporter (input ligand: arginine 13.2 mM) [nM] | apparent KD of K4 kissing-loop reporter (input ligand: none) [nM] | apparent KD of K4 kissing-loop reporter [1] [nM] | apparent KD of K4 kissing-loop reporter [2] [nM]
22 | UGAUACCAGACGGCCGCCACUCCCGUAAGUCAAAGACUUACGAAGAGAGUCGUCCAGUGAUGUUGGAGGACCGGGUCUGGUAUCU [FiskerMod 12 - Jieux - Exclusion - Tryptophan B] | 179 | 143 | 163 | 138 | 294
23 | UGAUACCAGACGGCCGCCACUCCUAGUGAUGUUAGGAACCUAAAAUAGCAUGUCAAAGACAUGCGGAGGACCGGGUCUGGUAUCU [TrypBX 23 #SwitchBubble #Palindromic #StaticStem] | 111 | 92.1 | 104 | 90.3 | 254
24 | UGAUACCAGACGGCCGCCACUCCUGCAGUCAAAGACUGCAAAGGAAUAUUCGUCCAGUGAUGUUGGAGGACCGGGUCUGGUAUCU [TrypBX 11 #SwitchBubble #Palindromic #StaticStem] | 974 | 698 | 1210 | 701 | 844
25 | UGAUACCAGACGGCCGCCACUGCACCAGUCAAUGACUGAGUGUAGUAAUGCUCAGUGAUGUUGAGUAGGACCGGGUCUGGUAUCU [Mod of Eli's TrypBX 8 v1] | 141 | 122 | 128 | 122 | 130
26 | UGAUACCAGACGGCCGCCACUUCCGCAAGUCAAAGACUUGCCAAGGGAAUCGUCCAGUGAUGUUGGAGGACCGGGUCUGGUAUCU [FiskerMod 4 - Jieux - Exclusion - Tryptophan B] | 939 | 516 | 1220 | 525 | 587
27 | UGAUACCAGACUGAUACCAGCCACAGAGUCAAGACUCUGAUAAAGGUAACCAGUGAUGUUGGCCCUUGGCAGCAGUCUGGUAUCU [TheoBX 16 #SwitchBubble #StaticStem] | 193 | 164 | 166 | 149 | 156
28 | UGAUAGGACAGAAGGAGCGGGAGUGAUGUUCCCAAAAUGGAAGGUCGACAAAGUCGACCCUCCCAGGUAGGUCGCUGUCCUAUCU [ArgBX 6 #SwitchBubble #StaticStem] | 91.3 | 101 | 99.6 | 99.2 | 86.7
29 | UGAUAGGACAGAAGGAGCGGGAGUGAUGUUCCCAAGGAUUGGUCUAGCAAAGCUGGACCCUCCCAGGUAGGUCGCUGUCCUAUCU [ArgBX 5 #SwitchBubble #StaticStem] | 195 | 223 | 222 | 182 | 191
30 | UGAUAGGACAGAAGGAGCGGUAGUGAUGUUGCCAAAAGUAUAAGGUGUCAAAAGACACCCUGCCAGGUAGGUCGCUGUCCUAUCU | 134 | 228 | 187 | 190 | 137
31 | UGAUCUCAGUGAUGUUGAGAUCAAACUGAUACCAGUCAAUUUAGUGACCCUUGGCAGCAGUAUACCAAGGGAUCUUAUGAGAUCA [Theo A SS t5] | 173 | 152 | 165 | 162 | 154
32 | UGAUUAAGCAGUGAUGUUGCAAGUAAUGAUACCAGUUAAGAAGAGAACCCUUGGCAGCAUAAAGUGCGCUCUGAUGAGUGUGCUU [whbob_SS_Theo_A_w53] | 101 | 153 | 123 | 169 | 95.6
33 | UGAUUGGCGAAAGUAGUGAUGUUACGAAUAUAGGAUAUUAGAGGAAUAAGAAGGAUAAAUGAGAAAUAGGUAAAUUGUUGGUUGG [FMN same state] | 101 | 51.5 | 95.5 | 116 | 94.5
34 | UGAUUUAACUGAAGGAGCGGCAAUUGAUAAGUAAAUAUAGUGAUGUUAUAUAAGAUAGAGAGCCAGGUAGGUCGCAGAGGUAUUU [ExArgB.N] | 173 | 141 | 154 | 153 | 141
35 | UGCACGGGCUCGGCCGCCACUCCCGCGGGUCGCAAGGUCCGCUACUGAGUGAUGUUCGGUUGGAGGAGGACCGGGAGCCCGUGCA [#2 Exclusion - Tryptophan B Attempt #27 (HarryS)] | 131 | 110 | 113 | 112 | 107
36 | UGCCGGGCUGUACGUUACUUAAAUCGCGAUACCAGCGAUACAAUCCGCCCUUGGCAGCGCAGUGAUGUUGCGCGGUCAUUACGGG [theeternabot_exclusion_KL_Theo_A_27] | 100 | 90.5 | 95.8 | 103 | 91.4
37 | UGCGCUAUGUCCUAAAAUGUCCUCCGGGAUACCAGAGUCUUUUUAUUCCCUUGGCAGCUUGAGUGAUGUUUGAUGCCGUUCUUGU [nnbvmullin] | 708 | 294 | 551 | 355 | 415
38 | UGCGCUGCCUGAGGAUAUAGAAACGAGUGAUGUUCGUGGAUAAGAGCCAGUGAUGUUGGGUUAUUUCUAGAAGGCAGGCAAAGUA [Exclusion FMN B GF7] | 108 | 98.2 | 117 | 93.4 | 104
39 | UGCUGGUCAUAGCGUAGUGUGAGCCGCUCACGAGGACCGGUACGGCCGCCACUCGUUACAAAGCAGUGAUGUUGCAAUAGGCUCU [theeternabot_sameState_KL_Trp_A_24] | 332 | 407 | 339 | 417 | 156
40 | UGGAGUUGACGAAAAGUCAACUCCAGAGAAGGAGCGGACGAAAGUCCAGGUAGGUCGCUCACUACCAGUGAUGUUGGUACUUGAA | 220 | 335 | 255 | 449 | 218
41 | UGGAGUUGACGAAAAGUCAACUCCUGAGAUACCAGUGACGAAGGUCACCCUUGGCAGCUCACUGCUAGUGAUGUUGGAAGAUAAA [whbob_SS_Theo_A_w48] | 1390 | 276 | 913 | 2350 | 792
42 | UGGAGUUGACGAAAAGUCAACUCCUGGGAAGGAGCGGACGAAAGUCCAGGUAGGUCGCCCACUACCAGUGAUGUUGGUACUUCAA | 241 | 274 | 271 | 254 | 209
